Test results: patent publication US20210145860A1

Molecular target: green fluorescent protein (GFP) [GFP: P42212]
Experiment: cell-based or functional assay

E3-ubiquitin ligase encoded by mRNA Construct G of Table 1 (ER signal-vhhGFP4-cereblon-FLAG-ER retention sequence), sequence (Q96SW2 whole entry): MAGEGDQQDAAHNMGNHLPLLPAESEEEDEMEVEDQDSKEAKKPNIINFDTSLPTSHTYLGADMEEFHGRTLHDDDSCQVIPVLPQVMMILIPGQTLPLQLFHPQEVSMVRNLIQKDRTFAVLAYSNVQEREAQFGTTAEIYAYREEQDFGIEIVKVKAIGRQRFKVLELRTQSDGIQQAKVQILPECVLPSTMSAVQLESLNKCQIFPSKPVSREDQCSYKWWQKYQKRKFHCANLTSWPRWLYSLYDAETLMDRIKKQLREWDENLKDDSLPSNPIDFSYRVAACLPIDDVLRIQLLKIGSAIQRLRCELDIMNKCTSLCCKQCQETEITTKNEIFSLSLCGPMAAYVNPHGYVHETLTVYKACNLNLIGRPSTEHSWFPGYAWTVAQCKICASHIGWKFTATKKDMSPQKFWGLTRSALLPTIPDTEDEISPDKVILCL

## E3-ubiquitin ligase encoded by mRNA Construct G of Table 1 (ER signal-vhhGFP4-cereblon-FLAG-ER retention sequence) (from UniProt Q96SW2 1-442)
  decrease in GFP mean fluorescence intensity (MFI), flow cytometry of HeLa cells at 10:1 Construct G:GFP RNA: 46%
